B1: GST-Sec23 (natural protein, S. cerevisiae)
chain: MDFETNEDINGVRFTWNVFPSTRSDANSNVVPVGCLYTPLKEYDELNVAPYNPVVCSGPHCKSILNPYCVIDPRNSSWSCPICNSRNHLPPQYTNLSQENMPLELQSTTIEYITNKPVTVPPIFFFVVDLTSETENLDSLKESIITSLSLLPPNALIGLITYGNVVQLHDLSSETIDRCNVFRGDREYQLEALTEMLTGQKPTGPGGAASHLPNAMNKVTPFSLNRFFLPLEQVEFKLNQLLENLSPDQWSVPAGHRPLRATGSALNIASLLLQGCYKNIPARIILFASGPGTVAPGLIVNSELKDPLRSHHDIDSDHAQHYKKACKFYNQIAQRVAANGHTVDIFAGCYDQIGMSEMKQLTDSTGGVLLLTDAFSTAIFKQSYLRLFAKDEEGYLKMAFNGNMAVKTSKDLKVQGLIGHASAVKKTDANNISESEIGIGATSTWKMASLSPYHSYAIFFEIANTAANSNPMMSAPGSADRPHLAYTQFITTYQHSSGTNRIRVTTVANQLLPFGTPAIAASFDQEAAAVLMARIAVHKAETDDGADVIRWLDRTLIKLCQKYADYNKDDPQSFRLAPNFSLYPQFTYYLRRSQFLSVFNNSPDETAFYRHIFTREDTTNSLIMIQPTLTSFSMEDDPQPVLLDSISVKPNTILLLDTFFFILIYHGEQIAQWRKAGYQDDPQYADFKALLEEPKLEAAELLVDRFPLPRFIDTEAGGSQARFLLSKLNPSDNYQDMARGGSTIVLTDDVSLQNFMTHLQQVAVSGQA

Tests used:
GST-Sec23 = target: B1; test: pull-down
[1] = target: Sec13/Sec31 outer coat complex (wild type, His tag removed) (S. cerevisiae, UniProt Q04491 1-297; P38968 1-1273); test: pull-down
Sec13/Sec31 outer coat complex (wild type, His tag removed), sequence (Q04491 whole entry, chain 1 of 2): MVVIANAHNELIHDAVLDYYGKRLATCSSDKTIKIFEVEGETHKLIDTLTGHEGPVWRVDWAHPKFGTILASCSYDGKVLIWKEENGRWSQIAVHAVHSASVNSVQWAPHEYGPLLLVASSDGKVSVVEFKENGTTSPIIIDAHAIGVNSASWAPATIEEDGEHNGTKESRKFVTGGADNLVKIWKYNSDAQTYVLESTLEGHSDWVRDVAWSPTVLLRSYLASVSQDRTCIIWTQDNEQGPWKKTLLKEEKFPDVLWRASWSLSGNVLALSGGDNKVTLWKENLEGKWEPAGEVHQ
Sec13/Sec31 outer coat complex (wild type, His tag removed), sequence (P38968 whole entry, chain 2 of 2): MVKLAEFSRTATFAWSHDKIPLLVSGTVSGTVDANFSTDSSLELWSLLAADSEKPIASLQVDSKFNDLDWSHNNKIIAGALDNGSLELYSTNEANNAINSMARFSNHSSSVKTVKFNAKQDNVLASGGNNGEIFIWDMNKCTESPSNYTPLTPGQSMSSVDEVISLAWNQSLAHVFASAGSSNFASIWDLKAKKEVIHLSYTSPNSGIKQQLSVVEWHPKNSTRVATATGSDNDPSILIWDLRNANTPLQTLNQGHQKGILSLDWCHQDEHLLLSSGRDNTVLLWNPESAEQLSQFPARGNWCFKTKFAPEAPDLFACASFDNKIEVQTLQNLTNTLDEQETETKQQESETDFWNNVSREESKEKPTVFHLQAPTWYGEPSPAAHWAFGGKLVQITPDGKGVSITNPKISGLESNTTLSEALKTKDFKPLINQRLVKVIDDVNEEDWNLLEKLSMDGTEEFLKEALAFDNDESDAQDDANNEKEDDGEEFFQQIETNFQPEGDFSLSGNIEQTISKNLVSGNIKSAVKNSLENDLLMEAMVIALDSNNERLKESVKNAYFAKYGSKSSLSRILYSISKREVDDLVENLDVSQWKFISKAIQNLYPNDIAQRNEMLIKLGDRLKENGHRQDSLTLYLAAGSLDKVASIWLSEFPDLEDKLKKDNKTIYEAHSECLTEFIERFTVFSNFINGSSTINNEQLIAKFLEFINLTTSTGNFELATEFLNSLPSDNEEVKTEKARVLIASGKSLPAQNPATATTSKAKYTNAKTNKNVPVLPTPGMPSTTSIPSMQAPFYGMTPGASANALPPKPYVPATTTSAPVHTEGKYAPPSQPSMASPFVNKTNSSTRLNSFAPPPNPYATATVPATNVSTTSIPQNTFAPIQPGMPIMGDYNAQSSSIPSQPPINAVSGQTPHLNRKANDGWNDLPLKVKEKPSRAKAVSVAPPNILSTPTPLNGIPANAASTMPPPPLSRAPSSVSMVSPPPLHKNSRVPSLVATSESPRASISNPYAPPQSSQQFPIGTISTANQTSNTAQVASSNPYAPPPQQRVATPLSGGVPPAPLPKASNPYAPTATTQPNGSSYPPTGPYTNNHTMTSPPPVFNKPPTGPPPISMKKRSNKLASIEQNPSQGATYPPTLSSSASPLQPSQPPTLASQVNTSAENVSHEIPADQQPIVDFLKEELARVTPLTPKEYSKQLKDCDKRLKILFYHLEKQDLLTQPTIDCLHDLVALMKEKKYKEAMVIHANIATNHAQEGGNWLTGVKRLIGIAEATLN

Row | binding result (GST-Sec23) | binding result [1] | Binder
1 | binds | – | 6xHis-Grh1 (natural protein, S. cerevisiae, UniProt Q04410 1-372, looked up) MFRIAKNLVRTFEQSVQDTLALSQDSSNLDAFFQSIPPNLLSAQLESPVDAVSEGVKHTNVNETLSGLRIVWVDEMQFQLQSFFDYIVGFNDDPVPVVSNQHGFSYPDYRRITSIFNEHCGRTLKVNIWSAKGGTFRDEYISIISKESDDLDDVSLNHDERRPSSGEAHQFQALGFKVQWTPLIASTFTYHILNVNIPDGPAQSAGLIPDEDYIIGCQDGLLATGGETLLQDIVRSRANYDLVLYVYNKVSDCVRPITVHIGPDGRLGCNVGYGFLHRIPTVKHCPQQAQQQGQDDNPVPVPVPVESETAFVPSAFTAPPVPTKKKSKNKKGTQPLAMDDYFNEGRDKSSTAAKSAESDILAPPPQKQSSSD
2 | – | binds | B1
